# From the nanobody polyreactivity screen of Harvey et al. (2022)
# Test: yeast display, Sf9 membrane polyspecificity reagent, FACS + sequencing; frameworks hold sequencing errors
# Summary of the method: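 Genes from sorted yeast were amplified by colony PCR, read by MiSeq 2 × 250 sequencing and filtered on CDR length. These cells carried a synthetic nanobody library in Saccharomyces cerevisiae BJ5465 and were sorted by FACS into low and high (top ~1%) gates on anti-HA and streptavidin fluorescence. Polyreactivity is labelled according to the gate of origin.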
row,Sequence,polyreactivity (PSR sort gate)
1,QVQLVDSGGGLVQAGGSLRLRCAASGITYSYYTKGWYRQAPGKERDLVAGITRSGSTYYADSVKGRFTISRDNAYNTVYLQMNSLKPEDTAVYYCNARARGAYNRPNYPRYYYWGQGTQVTVSS,high polyreactivity
2,QVQLVDSGGGLVQAGGSLRLRCAASGRNFGTNAMGWYRPAPGKERELVATITRGGGNTYYADSVKGRFTISRDNAKNTVYLQMNSLKPEDTAVYYCAAGVIFYVGTRVYAYDYWGQGTQLTVSS,low polyreactivity
3,QVQLVDSGGGLVQAGGSLRLRSAASGFTFCTYDMGWYRQAPGKERELVAAIDSGGSTYYADSVKGRFTISRDNAKNNVYLQMNSLKPEDTAVYYCNKVVDYFWYVEYDYWGQVTQVTVSS,low polyreactivity
4,QVQLVDSGGGLVQAGGSLRLSCAASGFIFSDYAMGWYRQAPGKEREFVAAISSGGSTYYADSVKGRFTISRDNAKNTVYLQMNSLKPEDTAVYYCNALWYREMDYWGQGTQVTVSS,high polyreactivity
5,QVQLVDSGGGLVQAGGSLRLSCAASGFIFVDYVMGWSRQAPGKERELVAAITRGGSTNYADSVKGRFTISRDNAKNTVYLQMNSLKPEDTAVYYCAVRWYRKYNYWGQGTQVTVSS,high polyreactivity
6,QVQLVDSGGGLVQAGGSLRLSCAASGFTFYAYGRGWNRQAPGKERELVATITWCGGNTYYADSVKGRFTISRDNAKNTVYLQMNSLKPEDTAVYYCAARLPSPIRPSRGYYDYWGQGTQVTVSS,low polyreactivity
7,QVQLVDSGGGLVQAGGSLRLSCAASGFTSTRYSMGWYREAPGKERELVAAISYGGGDTYYADSVKGRFTISRDNPKNTVYLQMNSLKPEDTAVYYCNARGRDRKSERRAFDYWGQGTQVTVSS,high polyreactivity
8,QVQLVDSGGGLVQAGGSLRLSCAASGGTFTAYTMGWYRQAPGKERELVAAITGDTSTNYADSVKGRFTISRDNAKNTVYLQMNSLKPVDTAVYYCAADVPRSYWRGYDYWGQGTQVTVSS,low polyreactivity
9,QVQLVDSGGGLVQAGGSLRLSCAASGINFQGNAMGWYRQAPGKERELVASITAGGDTTYYADSVKGRFTISRDNAKNTVYLQMNSLKPEDTAVYYCAVDSWLDADDSYPDSILVDYWGQGTQVTVSS,low polyreactivity
10,QVQLVDSGGGLVQAGGSLRLSCAASGITFYRYTMGWYRQGPGKERELVATITSGASTSYADSVKGRFTISRDNAKNTVYLQMNCLKPEDTAVYYCAARRTRVTGRYSVYAFDYWGQGTQVTVSS,low polyreactivity
11,QVQLVDSGGGLVQAGGSLRLSCAASGLIIWRNAMGWYRQAPGKERELVAAITYSGSRTYYADSVKGRFTISRDNAKNTVYLLMNSLKPEDTAVYYCNADYYWYPYEDDNWGQGTQVTVSS,low polyreactivity
12,QVQLVDSGGGLVQAGGSLRLSCAASGLIVFYAMGWYRQAPGKERELVAGISSGGNTNYADSVKGRFTISRDNAKNTFYLQMNSMKPQDTSVYYCAAVYLLSSYDFWGQGTQVTVSS,high polyreactivity
13,QVQLVDSGGGLVQAGGSLRLSCAASGLTCRKYTMGWYRQAPGKERELVAAISFRGGSTYYADSVKGRFTISRDNAKNTVYLQMNSLKPEDTAVYYCNARKRYSTDPGDYWGQGTQVTVSS,high polyreactivity
14,QVQLVDSGGGLVQAGGSLRLSCAASGLTITVYVMGWYRQAPGKERELVAAIDWSGGSTYYADSVKGRFTISRDNAKNTVYLQMNSLKPEDTAVYYCASETTDYAYYGFTYDYWGQGTQVTVSS,low polyreactivity
15,QVQLVDSGGGLVQAGGSLRLSCAASGRIFFANAMGWYRQAPGKERELVAAISWRGGSTYYADSVKGRFTISRDNAKNTVYLQKNSLKPEDTAVYYCAATSRGTDYWGQGTQVTLSS,high polyreactivity
16,QVQLVDSGGGLVQAGGSLRLSCAASGRIFIVNPMGRYRQAPGKEREFVAAITSRGGITYYADSVKGRFTISRDNAKNTVYLQMNTLKPEDTAVYYFAAGYISWGSGNWGVTPYDYWGQGTQVTVSS,high polyreactivity
17,QVQLVDSGGGLVQAGGSLRLSCAASGRIFPWYAMGWYRQAPGKEMELVAAINWRAGLTYYADSVKGRFTISRDYAKNTVYLQMNSLKPEDTAVYYCNARSGRGQAYGYWGQGTQVSVSS,high polyreactivity
18,QVQLVDSGGGLVQAGGSLRLSCAASGRIFRDNCMVCYRQAPGKERELVAAIRRSGGSTYYADSVKGRFTISRDNAKNSVYLQMNSLIPEDTAVYYCATPPYPGREYWGQGSQVTVSS,high polyreactivity
19,QVQLVDSGGGLVQAGGSLRLSCAASGRIFYPYAMGWYREATGKERELVAAMTRRTASTYYADSVKGRFTISRDNAKNTVYLQMNSLKPQDTAVYYCAAVSYLKRPYYAGYYYWGQGTQVTVSS,high polyreactivity
20,QVQLVDSGGGLVQAGGSLRLSCAASGRNFLWNAMGWDRQAPGKERELVAGISWRGSSTYYAVSVKGRFTISRDNAKNTVYLQMNSLKPEDTAVYYCAAQGRPYRGQRTGAYGYWGQGTQVTVSS,high polyreactivity
21,QVQLVDSGGGLVQAGGSLRLSCAASGRTFGYYAMGWYRQAPGKERELVAAISGSGGSTYYADSVKGRFTISRDNAKNTVYLQMNSLIPEDTAVYYCIVYPPYAMDYWGQGTQVTVSS,high polyreactivity
22,QVQLVDSGGGLVQAGGSLRLSCAASGRTFTQNAKGWYRPAPGKERELVAAIRRGGSTNYADSVKWRFTISRDNAKNTVYLQMKSLKPEDTAVYYCATECYYGFSYRYDFWGLGTQVTVSS,high polyreactivity

row,Sequence,polyreactivity (PSR sort gate)
1,QVQLVDSGGGLVQAGGSLRLSCAASGRTFTRNAMGWYRPATRQERELLAAISFTGGRTYYADSVKGRFTISRDNAKNTVYLQMNSLNPEDTAVYYCNTTSRRSQVGYSTRYDYWGQGTQVTVSS,high polyreactivity
2,QVQLVDSGGGLVQAGGSLRLSCAASGRTFTYYAMGWYRQAPGKERELVASISTTGRTYYADSVKGRFTITRDNAKNTVYLQMNSLKREDTAVYYCNASRVRRWNDYYKKFDYWGQGTQVTVSS,high polyreactivity
3,QVQLVDSGGGLVQAGGSLRLSCAASGRTFWQYAMGWYRQAPGKERELVAAISRSGGSTYYADSVKGRFTISRDNAQNTVSLQMNSLKPEDTAVYYCAAYYLGYNYDYWGQGTQVTVSS,high polyreactivity
4,QVQLVDSGGGLVQAGGSLRLSCAASGRTIHGYAMGWYRQAPGKERELVAAINWRGGSTYYADSVKGRFTISRDNAKNTVYLQMNSLKPEDTAVYYCNKRQYSARVSRSYDYWGQGTQVTVSS,high polyreactivity
5,QVQLVDSGGGLVQAGGSLRLSCAASGRTLYLYAMGWYRQAPGKKRELVAGISWSGTSTYYADSVKGRFTISRDNSKNTVYLQMNSLKPEDTAFYYCAADRLYVRYGYWGQGTQVTVSS,low polyreactivity
6,QVQLVDSGGGLVQAGGSLRLSCAASGSIFFIYAMGWYRQATGKERELVATITSGGSTYYADSVKGRFTISRDNAKNTVYLQMNSLKPEDTAVYYCAKYFVYVGYGRYDYWGQCTQVTVSS,low polyreactivity
7,QVQLVDSGGGLVQAGGSLRLSCAASGSIFKYYAMGWSRQAPGKERELVAAISWSGDSTYYADSVKGRFTISRDNAKNTVYLQMNSLKPEDTAVYYCAAVYPYQVPDYDYWGQGSQVTVSS,low polyreactivity
8,QVQLVDSGGGLVQAGGSLRLSCAASGSIFLGYAMGWYRQAPGKVREFVAAITWSGGSTYYADSVKGRFTISRDIAKNTVYLQMNSLKQEDTAVYYCAVEIWIPTWYGLSGEYDYWGQGTQVTVSS,low polyreactivity
9,QVQLVDSGGGLVQAGGSLRLSCAASGSIFNRYVMGWYRQAPGKERELVAAISRRGGNTYYADSVKGRFTISRDNAKNTVYLQMNSLKPEDTAVYYCAAAYRSYKQFYSYGYEYWGQGTQVTVSS,high polyreactivity
10,QVQLVDSGGGLVQAGGSLRLSCAASGSIFVPYAMGWYRQAPRKERELVAAISWSGGSTNYADSVKGRFTISRDNAKNTVYLQMNSLKPEDTAVYYCNARWSSWYIHSHYYYWGQGTQVTVSS,high polyreactivity
11,QVQLVDSGGGLVQAGGSLRLSCAASGSILGQNAMGGNRQAPGKERELVAAITRGGSSTYYADSVKGRFTISRDNAKNTVYLQMNSLKPEDTAVYYCAAYSSIGYRQISGYYWGEGTQVTVSS,low polyreactivity
12,QVQLVDSGGGLVQAGGSLRLSCAASGSIYNIYAMGWYRQAPGKERELVATITGIADSTYYADSVKGRFTISRDNAKNTVYLQMNSLKPEDTAVYYCAADKYVAEYDYWGQGTQVTVSS,low polyreactivity
13,QVQLVDSGGGLVQAGGSLRLSCAASGSTFDRNGMGWYRQAPGKERELVAAITRGGSTYYADSVKGRFTISRDNAKNTVYLQMNSLKPEDTAVYYCAKRYRGGYYYPYNYWGQGTQVTVSS,high polyreactivity
14,QVQLVDSGGGLVQAGGSLRLSCAASGSTFKINAMGWYRQAPGKERELVAAISSRGGPTYYADSVKGRFTISRDNAKNTVYLQMNRLKPEDTAVYYSAKRRGGSRPYYYWGQGTQVTVSS,high polyreactivity
15,QVQLVDSGGGLVQAGGSLRLSCAASGSTFKIYAMGWYRQAPGKERELVARITSGGSTNYADSVKGRFTISRDNAKNTVYLQMNSLKPEDTAVYYCAARRWSYSTRGQRSSNLDYWGHGTQVTVSS,high polyreactivity
16,QVQLVDSGGGLVQAGGSLRLSCAASGSTFLFNAMGWYRQAPGNVREVVAGISSSGGSTHYADSVKGRFTISRDNAKNTVYLQMNSLKPEDTAVYYCNAQQYLPSEGDYWGQGTQVTVSS,low polyreactivity
17,QVQLVDSGGGLVQAGGSLRLSCAASGSTFRGNAMGWSRQAPGKERELVAAISASGGRTYYADSVKGRFTISRDNAKNTVYLQMNSLKPEETAVYYCAVRDQTDKVPFYYWGQGTQVSVSS,high polyreactivity
18,QVQLVDSGGGLVQAGGSLRLSCAASGSTFSTYPMGWYRQAPGKERELVAAISRSGGTTYYADSVKGRFTISRDNAKNTVYLQMNSLKQEETAVYYCNAVTRYTQIMDYWGQGTQVTVSS,high polyreactivity
19,QVQLVDSGGGLVQAGGSLRLSCAASGSTFTYYAMGWYRQAPGKERELVAAIRNSDGTTYYADSVKGRFTISRDNAKNTVYLQMNSLKPEDTAVYYCAAGPRGRWSTYDYWGQGTQVTVSS,low polyreactivity
20,QVQLVDSGGGLVQAGGSLRLSCAASGSTFYGYTMGWYRQAPGKERELVAAITSSGGSTYYADTVKGRFTISRDNAKNTVYLQMNSLNPEDTAVYYCAARGYRHFYYWGQGTQVTVSS,high polyreactivity
21,QVQLVDSGGGLVQAGGSLRLSCAASGSTFYLYAMGWYRQAPGKERELVAVITTDGSTTYADSVKGRFTISRDNATNTVYLEMNSLKPEDTAVYFCAAYGGNGQYYSQYDYWGQGTQVTVSS,low polyreactivity
